From article PMC10248720

Biological target: T1, WOX11 (rice, UniProt Q0D3I7 1-262)
T1 sequence: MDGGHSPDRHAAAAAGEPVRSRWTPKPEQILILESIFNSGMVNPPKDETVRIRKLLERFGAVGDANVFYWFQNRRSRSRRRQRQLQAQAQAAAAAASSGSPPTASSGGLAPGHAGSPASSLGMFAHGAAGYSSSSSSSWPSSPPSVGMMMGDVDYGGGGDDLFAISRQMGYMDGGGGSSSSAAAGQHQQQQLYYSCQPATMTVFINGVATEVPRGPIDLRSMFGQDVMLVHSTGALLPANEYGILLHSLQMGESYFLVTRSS
Assay: EMSA

B1: PRX111-P2 (dsDNA)
DNA 1: TTCACTTAGCTTAATGCTGCTGGTGGC
DNA 2: GCCACCAGCAGCATTAAGCTAAGTGAA
B1: binds.
